Source: article PMC7716884

Molecular target: insulin lispro
Assay: SEC-MALS

Substance: insulin lispro (ligand)
- stoichiometry N: 6
